Results taken from IntAct's records for PubMed 20462497.

B1: Interleukin-10 receptor subunit beta (Homo sapiens), Q08334 (parent)
chain: MAWSLGSWLGGCLLVSALGMVPPPENVRMNSVNFKNILQWESPAFAKGNLTFTAQYLSYRIFQDKCMNTTLTECDFSSLSKYGDHTLRVRAEFADEHSDWVNITFCPVDDTIIGPPGMQVEVLADSLHMRFLAPKIENEYETWTMKNVYNSWTYNVQYWKNGTDEKFQITPQYDFEVLRNLEPWTTYCVQVRGFLPDRNKAGEWSEPVCEQTTHDETVPSWMVAVILMASVFMVCLALLGCFALLWCVYKKTKYAFSPRNSLPQHLKEFLGHPHHNTLLFFSFPLSDENDVFDKLSVIAEDSESGKQNPGDSCSLGTPPGQGPQS
B2: Interleukin-10 receptor subunit beta (Homo sapiens), Q08334 (parent)
chain: B1 chain
partner: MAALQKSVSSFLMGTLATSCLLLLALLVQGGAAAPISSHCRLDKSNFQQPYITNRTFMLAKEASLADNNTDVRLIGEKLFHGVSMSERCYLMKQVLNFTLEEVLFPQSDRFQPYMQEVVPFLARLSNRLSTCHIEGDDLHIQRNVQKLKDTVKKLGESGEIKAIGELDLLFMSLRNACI

Variants of: B1
Conditions: with il10_human IL10, P22301
il10_human IL10, P22301, sequence (P22301 whole entry): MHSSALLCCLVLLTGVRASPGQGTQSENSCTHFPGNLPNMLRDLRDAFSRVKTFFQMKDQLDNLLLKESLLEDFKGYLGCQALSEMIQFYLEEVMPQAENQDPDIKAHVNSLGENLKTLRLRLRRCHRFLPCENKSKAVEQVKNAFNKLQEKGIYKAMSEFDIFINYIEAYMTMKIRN

effect of a mutation on the interaction	Variant
decreasing interaction	MAWSLGSWLGGCLLVSALGMVPPPENVRMNSVNFKNILQWESPAFAKGNLTFTAQYLSYRIFQDKCMNTTLTECDFSSLSKAGDHTLRVRAEFADEHSDWVNITFCPVDDTIIGPPGMQVEVLADSLHMRFLAPKIENEYETWTMKNVYNSWTYNVQYWKNGTDEKFQITPQYDFEVLRNLEPWTTYCVQVRGFLPDRNKAGEWSEPVCEQTTHDETVPSWMVAVILMASVFMVCLALLGCFALLWCVYKKTKYAFSPRNSLPQHLKEFLGHPHHNTLLFFSFPLSDENDVFDKLSVIAEDSESGKQNPGDSCSLGTPPGQGPQS [Y82A]

Variants of: B2
Conditions: with il22_human IL22, Q9GZX6

effect of a mutation on the interaction	Variant
decreasing interaction	MAWSLGSWLGGCLLVSALGMVPPPENVRMNSVNFKNILQWESPAFAKGNLTFTAQYLSYRIFQDKCMNTTLTECDFSSLSKAGDHTLRVRAEFADEHSDWVNITFCPVDDTIIGPPGMQVEVLADSLHMRFLAPKIENEYETWTMKNVYNSWTYNVQYWKNGTDEKFQITPQYDFEVLRNLEPWTTYCVQVRGFLPDRNKAGEWSEPVCEQTTHDETVPSWMVAVILMASVFMVCLALLGCFALLWCVYKKTKYAFSPRNSLPQHLKEFLGHPHHNTLLFFSFPLSDENDVFDKLSVIAEDSESGKQNPGDSCSLGTPPGQGPQS [Y82A]
